Results published in the DeepSol protein solubility set.

Assay: soluble on expression in E. coli; label from the status in PepcDB or PDB records

Sequence | soluble on expression in E. coli
MKKIALAVLSLGLLVSGCSAGADKDEKVAEKSGKAKEQSVVPKYAISDEYYKTTIPFDGGNARGLVVQGLNSRLDIDEFETGLMRIAKESFSTKDNFLKGGKALDTQTIQMLVKRKRTDAEQKELEDKLKKDAVKFPNIGLNPALGTGSESLEVKNKKNPIYISNILEHDYYVKKGDNGEERVGMVVGLAMNSVQYFNEEHGYPREAAIPDEKMLAEGKKMAQEILKVIHQKEPETKNIPITFAIYRQAPKSSLVPGNFVSYANVEKGSETVEDWQQINEKYYLFPSEQAKTDNKREDLARVSNFKAKLSDYFQGDYTAVIGTGMYRDDELREMKLDIPVQFNGKAEIVGFTQYVAGLVMEYFPNYMKVQVTIKSVERPEAIIIREAKQDEPLVKILD | not soluble
MKKIDSAVAVEPAATVPKGRKNNPEKTREDILKAAVAEFVAHGLTGARVDAIAERTKTSKRMIYYYFGSKEQLYVEVLEKLYGAIRNTESELNLGELEPVEAIHRVVEFTFDHHDSNVDFVRIVCIENIHNGENVKQSDTIQAKSQNIIRALDGILRRGEASGLFRDGVHPVDLHLMISSFCFYRISNRHTFSEIFQIELWSEEVKQRHKAMICDAVLRYLKR | not soluble
MKKIILVAALLSAAVCLPAQNKGGNKSGGINLSLWKKACTQPLDSTQTTYVNLGLFSAMHKLHGVGFNAFGSMVQNNMNGVQISGLANLAGGSMHGVQIGGISNVNGNNLAGLSVSGLVNITGNKAKGVLITGLSNIAGDNMRGLMMSGIMNITGDKAAGVQLAGLANVTGEEYDGLMMSGLLNVVGEEMNGLQLSGLANVTGGQMNGVQLGLFNFASKAKGLQIGLFNYHKEDMKGLQLGLVNANPQTKVQLMVFGGNSTKINVGARFKNKLFYTILGGGTHYLDFDDKFSAALFYRAGLELPLYRNLFVSGDLGYQHIETFRNKKVEGIPARLYALQARLNLEYRFTDKFGLFVTGGYGGSRYYNKARTYDKGVIAEAGVVLFMAGDPLEHHHHHH | not soluble
MKKIMILVAVISFFSFSDDIKIDRAVKESITKDFDQDGKYSAYEKALRKAQESIYVTLPEHRGYWYSTLDKIKAEEEELLPDETARMRRR | not soluble
MKKIVFLLLLCVACCMNAQEFHLIPKVGLNLANTTGEVDSKVRPGLNIGLGGDVMLTERFGIETGVYYSMQGSKYKGGGVSYTDKLDYINVPVYAKEFIYKGLYVFGGPQFSFNVNSENKSSSDYGTTVIGMNVIRKFDCGVGLGAGYQFERGLLISLNYNIGLINVNKSWASDSNPKANNSVVQLNVGWRFAL | not soluble
MKKKLLAGAITLLSVATLAACSKGSEGADLISMKGDVITEHQFYEQVKSNPSAQQVLLNMTIQKVFEKQYGSELDDKEVDDTIAEEKKQYGENYQRVLSQAGMTLETRKAQIRTSKLVELAVKKVAEAELTDEAYKKAFDEYTPDVTAQIIRLNNEDKAKEVLEKAKAEGADFAQLAKDNSTDEKTKENGGEITFDSASTEVPEQVKKAAFALDVDGVSDVITATGTQAYSSQYYIVKLTKKTEKSSNIDDYKEKLKTVILTQKQNDSTFVQSIIGKELQAANIKVKDQAFQNIFTQYIGGGDSSSSSSTSNE | soluble
MKKKLTGVALVLAAVSLMGIQPAGACTRAVYLGPDRMVVTGRTMDWKEDIMSNIYVFPRGMQRAGHNKEKTVNWTSKYGSVIATGYDIGTCDGMNEKGLVASLLFLPESVYSLPGDTRPAMGISIWTQYVLDNFATVREAVDEMKKETFRIDAPRMPNGGPESTLHMAITDETGNTAVIEYLDGKLSIHEGKEYQVMTNSPRYELQLAVNDYWKEVGGLQMLPGTNRSSDRFVRASFYIHAIPQTADAKIAVPSVLSVMRNVSVPFGINTPEKPHISSTRWRSVSDQKNKVYYFESTLTPNLFWLDLKKIDFSPKAGVKKLSLTKGEIYAGDAVKDLKDSQSFTFLFETPVM | soluble
MKKKMMTVFTIGVMSLSILGGASPSETQKGKTDYTQRSKEQLNNGKIHAVHTEEKAEKLGIETEGKEQITLEKEIHETEVGREAEQLGISIEGKDVGMLSEEIYETKVKQEALKLGISIENTSIVDLITQINAIKIKDEADKLGISTDGKEIEDIAEEIYGKKVREEAGKLDISQKGKEIEELAQEVYEQKVQEEAKKHHIDLYGKDIYQILREINEQKVLQMADELNMDKMNMNIQELAEKIKKDQPEKGKELNFVPMVRTDADAFYSYLTNLEHHHHHH | not soluble
MKKLIVASLSLTFMLGGCASMNKEGVGTITGGVVGGLLGSQFGGGSGKVAAAGAGALLGAYLGGQIGKTMDKVDRLEMQRALETAPTGKAVAWSNPDTGYRYTVQPTRTYYNAQQPCREYITKAMIGGKTQQIYGKACRQADGSWRVVNLEHHHHHH | not soluble
MKKLLFFILILFGVLSVQSLANGCSAQICTCPGGGYVTTGQYCPVYNNNTPSQPVLTKWYAFSYDKNKNIYGVGTGYDKKTAQNEALKNCGTSECKIEKSQKIPGGISLAAVSSNGVMVTYSSFGSSTWEQYEKRIDNLIKKCKAKGGSNCKLVFDSAYLYRKDKNLGY | not soluble
MKKMNHVLQVLMLSASLVASPFTYANEEKGLEIAQERKARDEGWGDSIATMEMILKNAQGESSTRLMRLKSLEVEGDGDKGLTIFDQPRDVTGTAFLNHSHTIGADDQWLYLPALKRVKRISSRNKSGPFMGSEFAYEDLSSFEIEKYRFNHLKDEKFNGQDVFVLEQIPTDKNSGYTKQVVWLDKAHYRPLKVEFYDRKGALLKTLTFANYKQYLDKYWRAHTMAMTNHQTGKSTELNTSDLRFQTGLEENDFNKNVLKRVK | not soluble
MKKNMLRIMATVTIMGGLFVSTNVPNVKAEEYPEMIVFDDVPVNHWAYDDIMDVVYNKVMLGYGNGKFGVGDNVTREQVAAVLYRTLNLKKEGPLKNPYKDISERATFFLDEILVLTKHGIFEGDEKGNFRPAAPVTRAETAQILTKAFTFEVKKNHTFKDVPNNHWAKNAISALQSNHVIVGTGNGKFEPNKVVTREQYATFLNKAVFYFPVKDENYE | not soluble
MKKPVIGITGNEKTHPDDDIMMSYAAKGFVEGVKDAGGIPIILPIGDQEMACHYISLIDKLILTGGQNVDPKFYGEPKTIDSDDYHLQRDIFELALIKEAIKQKKPIFSVCRGTQLFNVAMGGTLYQDIEDHWQDSSVEYTTQRLVTEPDTVLQEIYGEISHINSFHHQSIKDLAPNLKVVAHDPKDGIIEAVMSTDDVAFLGVQWHPELLFENRPKDKKLFDYVVNEL | not soluble
MKKSLALLAFATLLPSAWTHADSAYINYRHQYAESTRMHADRVKFGSRLDSGWGFEGELKYKTAGDRQDVAFDNTVGNGHELTTSYQYRLNDKWMLTPSLALESIEKSTAYKMGLKLGYKVNDQLSVSGRYRYDSIKLDRDKVNHDMPDNQMDDQSINRYDVWVNYASKGPWAYEYQFTYFDADYIRYDNGRTDYEQNAAFKYRWDKHWVPFFEVGDIKVDSEDDKRQLRLRVGVQYNFL | not soluble
MKKVLLTLSLSIVASMGSFAQNEPYKNPKLTPEERAEDLLGRLTLKEKIGLMKNSSFAVERLGVAPYNWWSEALHGVARNGLATVFPITMGMASTFDDEAIERVYVAVSDEGRAKFHDAHRSNRYGYGNEGLTFWNPNVNIFRDPRWGRGQETFGEDPYLTTRMGVAVVKGMQGPADAEYDKAHACVKHYAVHSGPEAKRHSFDVEDLSPRDLWETYLPAFKALVQEADVKEVMCAYQRLEGEPCCDSNRLLTQILRDEWGYKHLVVSDCGAIDDFFVKGRHETHKDAADASASAVINGTDLECGSIYSHLEEAVKQGLITEERIDTSLRRLLKARFALGEMDP | not soluble
MKKVSVLIVAKNEANHIQECIESCRFDKEVIVIDDYSTDNTAEIAEGLGAKVFRRHLNGDFGAQKTFAIEQAGGEWVFLIDADERCTPELSDEISKIVQTGDYAAYFVERRNLFPNHPATHGAMRPDSVCRLMPKKDSSVQGKVHETVQTPYPKRRLKHFMYHYTYDNWEQYFNKFNKYTSISAEKYREQGKPVRFVRDIILRPIWGFFKIYILNKGFLDGKMGWIMSVNHSYYTMIKYVKLYYLYKSGGKF | not soluble
MKKVYIKTFGCQMNEYDSDKMADVLGSAEGMVKTDNPEEADVILFNTCSVREKAQEKVFSDLGRIRPLKEANPDLIIGVGGCVASQEGDAIVKRAPFVDVVFGPQTLHRLPDLIESRKQSGRSQVDISFPEIEKFDHIPPAKVDGGAAFVSIMEGCSKYCSFCVVPYTRGEEVSRPFEDVLTEIAGLAAQGVKEITLLGQNVNAYRGLMSDGEIADFALLLEYVHEVPGVERIRFTTSHPREFSQRIIDCYAKLPKLVSHLHLPVQSGSDRVLMAMKRGYTGLEYKSIIRKLRAIRPDLCLSSDFIIGFPGETEADFEQTLKLVRDCEFDFSFVFIYSPRPGTPAANLPDDTPHAEKVRRLEALNEVIEAKGYAINQSMVGTVQRVLVENVSKKDATMLAARTANNRVVNFAGHPRLLGRMIEVKITAAFPHSLAGEALTSESALEHHHHHH | soluble
MKKYLNQNVYDALIERLHFLFNDFPIVYISFSGGKDSGLLLNILLDFRDKYYPDREIGVFHQDFEAQYSLTTKYVQETFTSLEGRKKVSLYWVCLPMATRTALSSYEMFWYPWDDKTEDIWVRPMPSQDYVINLENNSITTYRYKMNQEDLAKQFGRWYKQIHGNQKTVCILGNRASESLHRYSGFINKKYGYQKECWITKQFKDVWTASPLYDWSVEDIWHAYYKFSYSYNELYDLFYKAGLKPSQMRVASPFQDYAVDSLNLYRIIDQETWVKLLGRVQGVNFSNIYGRTKAMGYKSIALPKGHSWKSYTQFLLSTLPVRLRNNYVRKFNKSIDFWHKTGGGLAEETINELIEKGYRIARNGISNYTSFKHSRVIFLDQIPDDTDDIVTTKDIPSWKRMCFCILKNDHICRTMGFGLTREQQKIVAFLKEKYKTSLKELESE | not soluble
MKLAELSKEEIQELSMVEVAYLVMKETKEPFNYQDLLKKVAELKGMSEEQMLDRIGYLYTDLNIDGRFVTLGDNRWGLRSWYPLEQVEEEITGPTKKKAKAKAEEEVDELDENIEVFDDEFEDLEDELDELAESEDSDEEDEEFDEGDDIDELDDEFEESDDDL | not soluble
MKLAVAGKGGVGKTTVAAGLIKIMASDYDKIYAVDGDPDSCLGQTLGLSIEEAYAITPLIEMKDEIREKTGDGGLLILNPKVDGDLDKYGRYIDDKIFLIRMGEIKKGGSQCYCRENSFLGSVVSALFLDKKEAVVMDMGAGIEHLTRGTAKAVDMMIAVIEPNLNSIKTGLNIEKLAGDLGIKKVRYVINKVRNIKEEKLIKKHLPEDKILGIIPYNELFIELSLKGEEIWQSTNPAFVNLHDIYQKLRLEVG | soluble
MKLDAILWDYDGTLVNSVPKNIEITKAILAIVAPHLTGDNLPKYLHSEANYHYANHAAKNWQELYVDYYGMSHDEMLQAGGLWAEHQEKNQTPVTLFEGIDGVIKEFAQLPHGICSQNSQSNIRRVLSDNGISAPFKSIVGYDDVSNGHQKPDAYSGIKCVESIFGHAENRQLMYIGDHEADTQFARNIEQQLGGQSKVIAVAAAYSGAMPEHWSVQPDYVARTVDELFSIIAQHT | not soluble
MKLDLIQSMLYNNPKPQDTKEGLSDQDFSIYMDAHTVPFSKYPSYMPAGVLGICTEGNAEIQVGLRKYVICANDILIFMPGFLVSFIKSSPTFTIDYCTFSNVLFYDVINGSIKRFPTGFHTYTQTHCVYSLSQEKAEQFSIYFRLLYNRATSPTYLFTKESITNLLKLPFLELYADYYSTVKEHKVTTLHKEEIGYFFLDLLLKHYKENKEVAFYAEKLHVSSKYLTEALTLVSGKSPKEWIIHYTLQEIYALLENPSISIQEIVQRTRFANLATLRRFFKRHTGTSLLQYRKQDLYKNNQ | not soluble
MKLDQIDLNIIEELKKDSRLSMRELGRKIKLSPPSVTERVRQLESFGIIKQYTLEVDQKKLGLPVSCIVEATVKNADYERFKSYIQTLPNIEFCYRIAGAACYMLKINAESLEAVEDFINKTSPYAQTVTHVIFSEIDTKNGRG | soluble
